PMC10920880, “RNA compaction and iterative scanning for small RNA targets by the Hfq chaperone”
Positions count from the first letter of the chain named.

Assays:
Hfq [1] = biological target: T1, Hfq (Escherichia coli K12, UniProt P0A6X3 1-102); assay: smFRET; 5 nM sRNA (N13)-Hfq; rates 0.05 s-1 (49%) and 0.01 s-1; lifetime >~112 s; smFRET: 10 mM Tris-HCl pH 7.5, 50 mM NaCl, 50 mM KCl, 4 mM Trolox, 0.01% Nikkol, 0.8% glucose, RNasin, oxygen scavenger; EMSA: 1x TNK, 5% glycerol, 15 min RT, native 8% PAGE 1x TBE 4 C; conditions: protein: recombinant; tags: none (untagged); chain copies: 6; label: tether 5' biotin, 3' Cy5; RNA 3' extension paired to DNA tether; 5' hairpin
Hfq [2] = biological target: T1, Hfq; assay: smFRET; sRNA (N13)-Hfq; 23% dynamic; smFRET: 10 mM Tris-HCl pH 7.5, 50 mM NaCl, 50 mM KCl, 4 mM Trolox, 0.01% Nikkol, 0.8% glucose, RNasin, oxygen scavenger; EMSA: 1x TNK, 5% glycerol, 15 min RT, native 8% PAGE 1x TBE 4 C; conditions: protein: recombinant; tags: none (untagged); chain copies: 6; label: tether 5' biotin, 3' Cy5; RNA 3' extension paired to DNA tether; 5' hairpin
Hfq [3] = biological target: T1, Hfq; assay: smFRET; sRNA (N13)-Hfq; 57% dynamic; smFRET: 10 mM Tris-HCl pH 7.5, 50 mM NaCl, 50 mM KCl, 4 mM Trolox, 0.01% Nikkol, 0.8% glucose, RNasin, oxygen scavenger; EMSA: 1x TNK, 5% glycerol, 15 min RT, native 8% PAGE 1x TBE 4 C; conditions: protein: recombinant; tags: none (untagged); chain copies: 6; label: tether 5' biotin, 3' Cy5; RNA 3' extension paired to DNA tether; 5' hairpin; spacer stem-loop
Hfq [4] = biological target: T1, Hfq; assay: smFRET; sRNA (N13)-Hfq; lifetime similar to (AAC)4; smFRET: 10 mM Tris-HCl pH 7.5, 50 mM NaCl, 50 mM KCl, 4 mM Trolox, 0.01% Nikkol, 0.8% glucose, RNasin, oxygen scavenger; EMSA: 1x TNK, 5% glycerol, 15 min RT, native 8% PAGE 1x TBE 4 C; conditions: protein: recombinant; tags: none (untagged); chain copies: 6; label: tether 5' biotin, 3' Cy5; RNA 3' extension paired to DNA tether; 5' hairpin
Hfq [5] = biological target: T1, Hfq; assay: smFRET; sRNA (N13)-Hfq; smFRET: 10 mM Tris-HCl pH 7.5, 50 mM NaCl, 50 mM KCl, 4 mM Trolox, 0.01% Nikkol, 0.8% glucose, RNasin, oxygen scavenger; EMSA: 1x TNK, 5% glycerol, 15 min RT, native 8% PAGE 1x TBE 4 C; conditions: protein: recombinant; tags: none (untagged); chain copies: 6; label: tether 5' biotin, 3' Cy5; RNA 3' extension paired to DNA tether; 5' hairpin
Hfq [6] = biological target: T1, Hfq; assay: smFRET; sRNA (N13)-Hfq; prefers S6 site; smFRET: 10 mM Tris-HCl pH 7.5, 50 mM NaCl, 50 mM KCl, 4 mM Trolox, 0.01% Nikkol, 0.8% glucose, RNasin, oxygen scavenger; EMSA: 1x TNK, 5% glycerol, 15 min RT, native 8% PAGE 1x TBE 4 C; conditions: protein: recombinant; tags: none (untagged); chain copies: 6; label: tether 5' biotin, 3' Cy5; RNA 3' extension paired to DNA tether; 5' hairpin
Hfq [7] = biological target: T1, Hfq; assay: smFRET; sRNA (N13)-Hfq; 39% dynamic; smFRET: 10 mM Tris-HCl pH 7.5, 50 mM NaCl, 50 mM KCl, 4 mM Trolox, 0.01% Nikkol, 0.8% glucose, RNasin, oxygen scavenger; EMSA: 1x TNK, 5% glycerol, 15 min RT, native 8% PAGE 1x TBE 4 C; conditions: protein: recombinant; tags: none (untagged); chain copies: 6; label: tether 5' biotin, 3' Cy5; RNA 3' extension paired to DNA tether; 5' hairpin

B1: (AAC)4-N0-S6 mRNA on DNA tether (mixed)
RNA: GGACUCUAUCGAGUCCAACAACAACAACGACCUCGCGCCCAGGACGACACACUUUGGACAGGACACACAGGACACAGG
DNA: CCTGTGTCCTGTGTGTCCTGTCCAAAGTGTGTCGTCC
Question: Does B1 bind (Hfq [1])?
Answer: Result: binds

B2: (AAC)4-S6-N35-S6 tandem mRNA on DNA tether (mixed)
RNA: GGACUCUAUCGAGUCCAACAACAACAACAGACCUCUCUACCAUCACCUAAACUUUACUCUACCAUCACCAGACCUCGCGCCCAGGACGACACACUUUGGACAGGACACACAGGACACAGG
DNA: B1 DNA
Question: Does B2 bind (Hfq [2])?
Answer: Result: binds

B3: (AAC)4-S6-N13-S6_SL tandem mRNA on DNA tether (mixed)
RNA: GGACUCUAUCGAGUCCAACAACAACAACAGACCUCUCUACCAUCACCGCAGCAUACUGCUGCAGACCUCGCGCCCAGGACGACACACUUUGGACAGGACACACAGGACACAGG
DNA: B1 DNA
Question: Does B3 bind (Hfq [3])?
Answer: Result: binds

B4: (AAC)6-N35-S6 mRNA on DNA tether (mixed)
RNA: GGACUCUAUCGAGUCCAACAACAACAACAACAACCCCUGCAUCACCUAAACUUUACUCUACCAUCACCAGACCUCGCGCCCAGGACGACACACUUUGGACAGGACACACAGGACACAGG
DNA: B1 DNA
Question: Does B4 bind (Hfq [4])?
Answer: Result: binds

B5: (AAC)4-N15-S6 mRNA on DNA tether (mixed)
RNA: GGACUCUAUCGAGUCCAACAACAACAACUCUACCAUCACCUAAGACCUCGCGCCCAGGACGACACACUUUGGACAGGACACACAGGACACAGG
DNA: B1 DNA
Question: Does B5 bind (Hfq [5])?
Answer: Result: binds

B6: (AAC)4-S4-N13-S6 tandem mRNA on DNA tether (mixed)
RNA: GGACUCUAUCGAGUCCAACAACAACAACACUCCUCUCUACCAUCACCCGACCUCGCGCCCAGGACGACACACUUUGGACAGGACACACAGGACACAGG
DNA: B1 DNA
Question: Does B6 bind (Hfq [6])?
Answer: Result: binds

B7: (AAC)4-S6-N15-S4 tandem mRNA on DNA tether (mixed)
RNA: B6 RNA with A29C, C30G, U31A, C48A, G49C, A50U
DNA: B1 DNA
Question: Does B7 bind (Hfq [6])?
Answer: Result: binds

B8: (AAC)4-S6-N13-S6 tandem mRNA on DNA tether (mixed)
RNA: B6 RNA with C30G, U31A, C48A
DNA: B1 DNA
Question: Does B8 bind (Hfq [7])?
Answer: Result: binds

B9: (AAC)4-N35-S6 mRNA on DNA tether (mixed)
RNA: GGACUCUAUCGAGUCCAACAACAACAACUCUACCAUCACCUAAACUUUACUCUACCAUCACCAGACCUCGCGCCCAGGACGACACACUUUGGACAGGACACACAGGACACAGG
DNA: B1 DNA
Question: Does B9 bind (Hfq [5])?
Answer: Result: binds
